Measured values from patent US20090149389A1 (PURDUE RESEARCH FOUNDATION, published 2009).

Key:
Experiment in all cases: cell-based or functional assay
JAK3 (h) = JAK3 (h) (human (h), UniProt P52333 781-1124, limits assumed)
PKG1β (h) = target: T1, PKG1β (h) (human (h), UniProt Q13976-2 1-686)
T1 sequence (looked up): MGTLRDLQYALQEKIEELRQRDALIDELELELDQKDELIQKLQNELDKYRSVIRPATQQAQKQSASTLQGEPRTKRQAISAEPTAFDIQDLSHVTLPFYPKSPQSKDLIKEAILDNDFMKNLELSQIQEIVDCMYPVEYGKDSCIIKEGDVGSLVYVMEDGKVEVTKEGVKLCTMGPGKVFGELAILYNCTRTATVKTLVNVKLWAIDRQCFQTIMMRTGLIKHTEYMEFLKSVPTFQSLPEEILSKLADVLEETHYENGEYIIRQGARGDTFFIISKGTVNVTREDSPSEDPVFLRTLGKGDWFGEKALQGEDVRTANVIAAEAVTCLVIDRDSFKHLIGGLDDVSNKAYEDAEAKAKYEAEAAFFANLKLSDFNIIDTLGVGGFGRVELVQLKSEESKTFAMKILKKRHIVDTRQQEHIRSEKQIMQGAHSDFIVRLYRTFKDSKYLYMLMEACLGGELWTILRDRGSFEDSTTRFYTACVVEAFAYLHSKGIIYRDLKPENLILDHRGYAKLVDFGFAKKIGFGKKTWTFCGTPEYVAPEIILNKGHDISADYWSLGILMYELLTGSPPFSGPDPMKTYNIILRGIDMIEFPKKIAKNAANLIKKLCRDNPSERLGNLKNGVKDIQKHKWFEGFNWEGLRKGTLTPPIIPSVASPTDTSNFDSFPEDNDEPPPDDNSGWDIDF

Met (h) = Met (h) (human (h), UniProt P08581 974-1390, limits assumed)
Met (h), sequence (P08581 974-1390 limits assumed): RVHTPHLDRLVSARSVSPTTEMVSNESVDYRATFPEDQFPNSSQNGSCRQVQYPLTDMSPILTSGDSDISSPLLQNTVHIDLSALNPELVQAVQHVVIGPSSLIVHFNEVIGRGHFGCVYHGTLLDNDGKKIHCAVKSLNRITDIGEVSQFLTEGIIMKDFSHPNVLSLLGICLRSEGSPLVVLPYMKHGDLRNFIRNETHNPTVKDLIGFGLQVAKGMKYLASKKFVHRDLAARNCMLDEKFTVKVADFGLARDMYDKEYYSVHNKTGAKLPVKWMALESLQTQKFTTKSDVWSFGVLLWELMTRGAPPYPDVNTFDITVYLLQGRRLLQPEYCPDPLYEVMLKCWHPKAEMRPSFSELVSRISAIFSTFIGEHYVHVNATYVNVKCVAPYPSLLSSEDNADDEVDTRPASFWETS

TrkA (h) = TrkA (h) (human (h), UniProt P04629 441-796, limits assumed)
TrkA (h), sequence (P04629 441-796 limits assumed): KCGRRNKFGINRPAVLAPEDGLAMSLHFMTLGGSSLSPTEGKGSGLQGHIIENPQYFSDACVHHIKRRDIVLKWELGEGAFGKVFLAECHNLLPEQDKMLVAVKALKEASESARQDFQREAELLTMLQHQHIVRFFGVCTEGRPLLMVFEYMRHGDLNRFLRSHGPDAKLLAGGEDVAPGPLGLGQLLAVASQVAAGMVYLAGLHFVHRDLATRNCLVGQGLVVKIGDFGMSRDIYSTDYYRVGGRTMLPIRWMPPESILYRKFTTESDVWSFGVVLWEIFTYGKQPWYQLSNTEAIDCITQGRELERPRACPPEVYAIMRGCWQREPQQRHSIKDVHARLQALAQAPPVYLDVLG

Ret (h) = target: T2, Ret (h) (human (h), UniProt P07949 658-1114, limits assumed)
T2 sequence (looked up): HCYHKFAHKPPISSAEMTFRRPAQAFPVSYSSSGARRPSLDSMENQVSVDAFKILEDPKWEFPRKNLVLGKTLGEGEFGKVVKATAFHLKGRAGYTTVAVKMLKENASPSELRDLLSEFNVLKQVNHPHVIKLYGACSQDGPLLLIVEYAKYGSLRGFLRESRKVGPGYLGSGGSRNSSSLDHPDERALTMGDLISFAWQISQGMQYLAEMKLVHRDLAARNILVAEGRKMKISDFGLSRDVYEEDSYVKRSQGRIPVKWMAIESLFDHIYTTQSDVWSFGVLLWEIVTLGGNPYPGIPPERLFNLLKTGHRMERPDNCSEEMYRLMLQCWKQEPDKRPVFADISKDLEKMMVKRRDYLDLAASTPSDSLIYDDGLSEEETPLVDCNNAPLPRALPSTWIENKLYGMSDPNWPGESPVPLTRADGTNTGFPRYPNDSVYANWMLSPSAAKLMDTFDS

JAK3 (h), sequence (P52333 781-1124 limits assumed): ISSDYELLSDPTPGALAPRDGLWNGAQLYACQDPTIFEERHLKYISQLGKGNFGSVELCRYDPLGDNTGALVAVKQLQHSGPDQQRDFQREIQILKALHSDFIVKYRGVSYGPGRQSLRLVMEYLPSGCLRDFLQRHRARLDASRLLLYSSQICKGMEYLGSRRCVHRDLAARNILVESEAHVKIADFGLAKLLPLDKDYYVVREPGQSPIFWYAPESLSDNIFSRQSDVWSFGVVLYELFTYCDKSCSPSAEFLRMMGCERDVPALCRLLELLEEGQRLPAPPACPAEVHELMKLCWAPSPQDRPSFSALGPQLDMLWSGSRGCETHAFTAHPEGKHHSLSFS

WLRRIKAWLRRIKALNRQLGVAA was tested, and the “Profile-1 @ = 30 µm (kinase profiler assay)” value (“Profile-1 @ = 30 µm” for short) (JAK3 (h)) was 85, the “Profile-1 @ = 30 µm” value (PKG1β (h)) was 15 and the “Profile-1 @ = 30 µm” value (Met (h)) was 30. The “Profile-1 @ = 30 µm” value (TrkA (h)) was 6 and the “Profile-1 @ = 30 µm” value (Ret (h)) was 117.
